Target: T1, Nuclease H T783R/E43R/A170R (synthetic construct, T783R,E43R,A170R)
T1 chain: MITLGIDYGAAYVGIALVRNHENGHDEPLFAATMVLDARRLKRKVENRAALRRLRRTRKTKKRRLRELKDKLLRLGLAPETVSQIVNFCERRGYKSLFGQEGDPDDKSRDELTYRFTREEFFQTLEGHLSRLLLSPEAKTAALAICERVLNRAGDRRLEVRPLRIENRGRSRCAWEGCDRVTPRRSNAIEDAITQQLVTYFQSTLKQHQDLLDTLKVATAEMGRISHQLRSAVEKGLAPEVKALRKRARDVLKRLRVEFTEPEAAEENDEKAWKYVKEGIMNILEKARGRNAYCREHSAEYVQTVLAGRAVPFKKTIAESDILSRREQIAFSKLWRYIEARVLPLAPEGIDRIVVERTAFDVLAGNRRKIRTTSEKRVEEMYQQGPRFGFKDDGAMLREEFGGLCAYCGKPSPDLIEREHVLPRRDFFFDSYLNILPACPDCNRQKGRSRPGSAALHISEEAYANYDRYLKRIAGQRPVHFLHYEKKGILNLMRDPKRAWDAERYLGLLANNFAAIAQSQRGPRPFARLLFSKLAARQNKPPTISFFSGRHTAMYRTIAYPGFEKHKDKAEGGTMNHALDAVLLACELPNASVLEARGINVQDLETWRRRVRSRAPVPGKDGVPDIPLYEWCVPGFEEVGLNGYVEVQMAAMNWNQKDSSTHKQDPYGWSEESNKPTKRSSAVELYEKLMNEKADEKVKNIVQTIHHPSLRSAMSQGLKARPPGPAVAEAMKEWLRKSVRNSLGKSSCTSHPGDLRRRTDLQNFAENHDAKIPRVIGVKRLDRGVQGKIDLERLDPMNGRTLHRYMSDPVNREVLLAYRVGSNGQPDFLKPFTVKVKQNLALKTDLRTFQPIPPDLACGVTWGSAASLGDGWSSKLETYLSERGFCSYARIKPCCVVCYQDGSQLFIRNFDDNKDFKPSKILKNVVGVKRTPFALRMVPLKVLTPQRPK
Assay: cell_activity; HEK293T; PAM AAC
Conditions: tags: N-term SV40 NLS, XTEN linker + C-term nucleoplasmin NLS
Description: HEK293T cells were transfected with plasmids expressing the Nuclease H polypeptides and the gRNAs provided herein following the methods provided in Example 1 above. Gene editing efficiencies were determined by NGS following the methods also provided in Example 1. The NGS results were analyzed also following the methods provided in Example 1 above.
Each Nuclease H variant and RNA guide (see Table 16) was cloned as described in Example 9. HEK293T cells were further transfected, followed by NGS analysis, as described in Example 10. For each target, indel ratios, referring to the percentage of NGS reads comprising indels, were calculated for the reference Nuclease H (SEQ ID NO: 64) and for each Nuclease H variant. The indel ratios shown in Table 18 were calculated as the average of two bioreplicates, each of which contained two technical replicates.

B1: H AAVS1-T5 RNA guide ; AAVS1-T5 target (H) (ssRNA ; dsDNA)
RNA: GGCUAUAAUCCAUGCUGACCGUUUCAAUCAACCUGAUCUCUCUGCUUGCGCUGCAGGCUUCAUAAGAUCAGUAGGUUGAAAAGAGCAUCCGUCCGACAUGCACUCCGGGAUGGGGCAGUCCCGGCUCUUGCGGUUCCCGAUGCAGUUAUGUGUCCGCGGAACACGGUGUCGGACACGUCGCAAGACAGGAUGUGAGCCCAUUAUCCACAUUAGGAUCAAUGUACGCAUGAGCAGUCCGCAAUGCCGGGGACGCU
DNA 1: GGCTATAATCCATGCTGACC
DNA 2: GGTCAGCATGGATTATAGCC
B1 was tested, and the activity was 0.184 indel ratio.
